These results are taken from the RNAGym collection of RNA variant scans (doi:10.1073/pnas.2313332121).

Sequences and labels used below:
B1: TPR t1 (parent)
chain: GACCAAUCUGCCCUCAGAGCUCGAGAACAUCUUCGGAUGCAGAGGAGGCAGGCUUCGGUGGCGCGAUAGCGCCAACGUCCUCAACCUCCAAUGCAUCCCACCACAUGAUGAUGCCUGAAGAGCCUUGGUUUUUUG

This data set covers variants of B1. Description: polymerase ribozyme fitness, log enrichment relative to wild type (log ratio); higher = more active; in vitro selection for triplet polymerase activity. The essentials:
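A heterodimeric triplet polymerase ribozyme had each of its subunits mutagenized by PCR into a library, which was transcribed. One round of in vitro selection, done in triplicate, annealed each library with a biotinylated primer, its partner subunit and triplets, then incubated it frozen at −7 °C before gel excision of extended constructs, streptavidin-bead capture and RT-PCR. Fitness is the logarithm of genotype enrichment relative to wild-type enrichment, based on Illumina sequencing of inputs and outputs and inverse-variance-weighted replicate averages. A base-2 logarithm is used, and genotypes were kept only with ≥10 input reads and ≥1 read per output.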
Take A24G A46U C62G: the “polymerase ribozyme fitness (log ratio)” value was -5.81.

With G63A C72G, the “polymerase ribozyme fitness (log ratio)” value was -3.11. The value for C12G C34G C114A was -6.75; that for G10A A29C was -1.99. To A2G C12U C101U A105U C115A belongs -1.02; to U7C A66C G77C C88A, -2.34; to G36A G42A C72U, -4.34.

Take U96C A100U: the “polymerase ribozyme fitness (log ratio)” value was -1.08. The value for A6U G120U was -0.0286; that for C8A G69A G120C was -1.1; that for C8G C11U C85U U130C was -0.895. With G47U A50G, the “polymerase ribozyme fitness (log ratio)” value was -1.99. On to C56U C88A G127C, for which the “polymerase ribozyme fitness (log ratio)” value was -1.72.

Turning to A26G U112G, the “polymerase ribozyme fitness (log ratio)” value was -0.342. Regarding A5U U130G, the “polymerase ribozyme fitness (log ratio)” value is -0.49. In the case of C31U C94A C114U, the “polymerase ribozyme fitness (log ratio)” value is -5.92.

As for G19A C124A U129C, the “polymerase ribozyme fitness (log ratio)” value is -2.22.

Regarding A68C U116A A119U C124U, the “polymerase ribozyme fitness (log ratio)” value was -7.83. The value for G71U C94U G117C was -3.99; that for G51U G120C U133G was -1.86; that for C70U C102A was -1.86. To G39U U92C belongs -1.97; to A2C C11A G17C C70U C123G, -3.69; to G71U G128U, -2.61. To C56U U81G C97U belongs -1.35. As to C11U C53U C72U C82G C123G, the “polymerase ribozyme fitness (log ratio)” value is -0.853. The value for C56A C80G C86U was -3.12. The value for C56G C123U was 0.748; that for C20G C124A was -2.2; that for C97U A119U C123A was -1.43.

For G42C C56G C72G C88G C114A, the “polymerase ribozyme fitness (log ratio)” value is -7.1.

Consider C20U C49U C56G U78G U81A C86U U133G, for which the “polymerase ribozyme fitness (log ratio)” value was -3.51. On to U30C C40U C53G C56G C62U C76A, for which the “polymerase ribozyme fitness (log ratio)” value is -5.08. The value for A5G C11U G48U G69A U131C was -3.72. To G60A C114A belongs -1.45. The value for G35A G42C was -5.64; that for A50G C53A C72A G93C U109G was -5.37; that for C11U G42A was -2.48. On to C3U C34A C73A, for which the “polymerase ribozyme fitness (log ratio)” value was -2.99. For C64U C114U, the “polymerase ribozyme fitness (log ratio)” value is -1.47. To C56G A111C belongs -0.855. With G120C, the “polymerase ribozyme fitness (log ratio)” value stood at 1.05. To G63A C73A C114G belongs -5.85. To G52A A95C G113C belongs -3.3; to C40U G48U A50C G51A, -3.99; to G69A U78G A118U, -1.62. Turning to G44U G110C, the “polymerase ribozyme fitness (log ratio)” value is -3.92. With C72U A84U C101U, the “polymerase ribozyme fitness (log ratio)” value is -0.839. For the variant C49A C53A C70U C86A U112G G128A, the “polymerase ribozyme fitness (log ratio)” value was -5.42. The value for G19C C22U A46C C114U was -5.79. Turning to C12U C15U, the “polymerase ribozyme fitness (log ratio)” value was -0.154. As to C8U C64A U78C C123U, the “polymerase ribozyme fitness (log ratio)” value was -4.51.

With G69A G127C, the “polymerase ribozyme fitness (log ratio)” value is -3.47. The value for A66C G113C was -3.98; that for A27U G61A C86U was -2.19; that for C8A C11A C22A U32G U33C C34A C40G C72U A100U C115U was -6.9. The value for U7C C28G G61U was -3.14; that for A6U was 0.173; that for U14A U33G C34A G47C C70U U112A G127A was -6.98.

With G58A G60C G120C, the “polymerase ribozyme fitness (log ratio)” value is -3.34. Regarding A27G C64U, the “polymerase ribozyme fitness (log ratio)” value was -2.01. To G23A G51A A111G belongs -6; to C3A G39C C72U U92A A111G, -5.51. The value for G10U A16C G44C C70U A111C U125G was -7.14; that for G19A C40U G45C G61C C124A was -3.57. To C12G C15A U78A belongs -2.34; to C80U C115G, -0.729. In the case of C101G G122C C124A U126A, the “polymerase ribozyme fitness (log ratio)” value is -3.82.

Regarding G63A C89U, the “polymerase ribozyme fitness (log ratio)” value is -1.62.

In the case of G71A A74G C88A C97A G117C, the “polymerase ribozyme fitness (log ratio)” value was -5.77. As for G45U C115A G128U, the “polymerase ribozyme fitness (log ratio)” value is -4.73. The value for U14G C62U U78C was -2.77.

For G42C C56A G122A, the “polymerase ribozyme fitness (log ratio)” value was -2.92. For C11G A29G C49G G93U, the “polymerase ribozyme fitness (log ratio)” value was -3.07. In the case of C70A U126A, the “polymerase ribozyme fitness (log ratio)” value is -2.53.

With U55A G77U C115U U125A, the “polymerase ribozyme fitness (log ratio)” value is -1.02. The value for C11A A46C G61U C94A was -2.34; that for U33C A46C was -6.49; that for G36U G39U G44A was -4.17. To U9G C12G belongs 0.483. Consider C49A C85A, for which the “polymerase ribozyme fitness (log ratio)” value was -1.43. The value for C102A G135U was -3.13; that for A5U A29U G71A U78G C123A G128U was -4.18.
